Biological target: AAV12 capsid viral protein (VP) (Adeno-associated virus 12)
Assay: cryo-EM structure

Substance: AAV12 capsid viral protein (VP) (natural protein)
- stoichiometry N: 60

Source: paper PMC7828300
